In paper PMC3886899 (Nature, 2013):

Biological target: SAMHD1(26-626) (human, UniProt Q9Y3Z3 26-626)
Assay: SEC

Sequence of SAMHD1(26-626) (Q9Y3Z3 26-626): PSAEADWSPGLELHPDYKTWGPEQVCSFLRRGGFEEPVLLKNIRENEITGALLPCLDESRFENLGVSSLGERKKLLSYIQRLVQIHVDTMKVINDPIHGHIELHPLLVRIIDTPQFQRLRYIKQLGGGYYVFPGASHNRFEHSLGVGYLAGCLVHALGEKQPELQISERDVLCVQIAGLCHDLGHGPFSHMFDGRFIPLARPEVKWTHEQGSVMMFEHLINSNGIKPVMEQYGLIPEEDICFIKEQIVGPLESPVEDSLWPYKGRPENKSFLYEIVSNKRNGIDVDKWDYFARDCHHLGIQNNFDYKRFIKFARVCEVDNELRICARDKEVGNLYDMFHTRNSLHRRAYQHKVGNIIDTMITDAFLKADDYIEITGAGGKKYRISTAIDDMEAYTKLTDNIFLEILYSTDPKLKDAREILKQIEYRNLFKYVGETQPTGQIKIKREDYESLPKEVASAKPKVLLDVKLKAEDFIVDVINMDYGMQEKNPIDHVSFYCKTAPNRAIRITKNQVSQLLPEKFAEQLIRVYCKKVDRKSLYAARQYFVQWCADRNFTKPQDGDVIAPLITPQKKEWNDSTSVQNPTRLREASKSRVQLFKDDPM

B1: Vpxsm/DCAF1-CtD (complex)
chain 1: MSDPRERIPPGNSGEETIGEAFDWLDRTVEEINRAAVNHLPRELIFQVWRRSWEYWHDEMGMSVSYTKYRYLCLIQKAMFMHCKKGCRCLGGEHGAGGWRPGPPPPPPPGLA
chain 2: not shown
B1: binds.
